This note sets out measurements from publication PMC3979393 (2014).

As a reminder, the Kd is the free concentration of one partner at which half of the binding sites on the other are occupied at equilibrium, for simple one-to-one binding. A lower Kd goes with tighter binding.

In one series the target is Rat tail collagen type I (rat, UniProt P02454 152-1207; P02466 86-1125). As to the kind of experiment: ELISA.
Series [1] can be described thus: BS3 cross-linking of lysates, IP, anti-DDR1 blot. The note with it: glycan lost; control: wild-type DDR1b, no collagen.
Series [2] is described as follows: anti-Myc blot of surface, intracellular and lysate fractions. To be noted: glycan lost; control: wild-type DDR1b.
The nature of series [3]: reversible biotinylation endocytosis assay, COS1. The note with it: glycan lost; control: wild-type DDR1b.
Series [4] is described as follows: cell-surface biotinylation, avidin pulldown, anti-Myc blot. To be noted: glycan lost; control: wild-type DDR1b, no collagen.

Rat tail collagen type I, sequence (P02454 152-1207, chain 1 of 2): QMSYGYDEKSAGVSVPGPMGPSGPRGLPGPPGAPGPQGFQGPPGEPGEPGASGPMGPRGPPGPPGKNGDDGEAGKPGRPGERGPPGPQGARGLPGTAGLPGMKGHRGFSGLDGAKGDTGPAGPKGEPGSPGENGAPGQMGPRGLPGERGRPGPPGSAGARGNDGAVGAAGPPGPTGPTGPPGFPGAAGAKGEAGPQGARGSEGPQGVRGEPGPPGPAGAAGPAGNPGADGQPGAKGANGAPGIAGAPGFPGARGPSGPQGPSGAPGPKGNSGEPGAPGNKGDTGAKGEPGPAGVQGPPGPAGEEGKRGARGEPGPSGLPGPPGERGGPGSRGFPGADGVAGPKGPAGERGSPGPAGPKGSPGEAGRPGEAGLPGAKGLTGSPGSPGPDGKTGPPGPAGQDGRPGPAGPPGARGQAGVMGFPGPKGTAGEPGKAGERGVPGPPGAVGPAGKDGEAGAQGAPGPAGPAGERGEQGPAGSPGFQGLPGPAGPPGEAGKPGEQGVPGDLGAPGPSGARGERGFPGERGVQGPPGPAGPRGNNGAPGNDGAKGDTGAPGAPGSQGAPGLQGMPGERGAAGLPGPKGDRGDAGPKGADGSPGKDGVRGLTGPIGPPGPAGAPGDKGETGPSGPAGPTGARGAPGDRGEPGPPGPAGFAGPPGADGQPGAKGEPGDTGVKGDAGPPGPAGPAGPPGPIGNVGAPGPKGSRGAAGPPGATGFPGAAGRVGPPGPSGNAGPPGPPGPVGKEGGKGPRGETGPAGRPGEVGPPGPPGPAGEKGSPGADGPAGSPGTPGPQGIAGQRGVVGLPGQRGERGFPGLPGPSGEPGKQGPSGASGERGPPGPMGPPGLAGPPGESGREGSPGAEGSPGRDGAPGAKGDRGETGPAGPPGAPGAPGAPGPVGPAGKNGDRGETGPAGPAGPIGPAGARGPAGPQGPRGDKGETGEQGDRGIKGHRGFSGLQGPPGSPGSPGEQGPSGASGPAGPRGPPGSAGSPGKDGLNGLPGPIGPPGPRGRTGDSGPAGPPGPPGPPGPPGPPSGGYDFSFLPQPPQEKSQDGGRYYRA
Rat tail collagen type I, sequence (P02466 86-1125, chain 2 of 2): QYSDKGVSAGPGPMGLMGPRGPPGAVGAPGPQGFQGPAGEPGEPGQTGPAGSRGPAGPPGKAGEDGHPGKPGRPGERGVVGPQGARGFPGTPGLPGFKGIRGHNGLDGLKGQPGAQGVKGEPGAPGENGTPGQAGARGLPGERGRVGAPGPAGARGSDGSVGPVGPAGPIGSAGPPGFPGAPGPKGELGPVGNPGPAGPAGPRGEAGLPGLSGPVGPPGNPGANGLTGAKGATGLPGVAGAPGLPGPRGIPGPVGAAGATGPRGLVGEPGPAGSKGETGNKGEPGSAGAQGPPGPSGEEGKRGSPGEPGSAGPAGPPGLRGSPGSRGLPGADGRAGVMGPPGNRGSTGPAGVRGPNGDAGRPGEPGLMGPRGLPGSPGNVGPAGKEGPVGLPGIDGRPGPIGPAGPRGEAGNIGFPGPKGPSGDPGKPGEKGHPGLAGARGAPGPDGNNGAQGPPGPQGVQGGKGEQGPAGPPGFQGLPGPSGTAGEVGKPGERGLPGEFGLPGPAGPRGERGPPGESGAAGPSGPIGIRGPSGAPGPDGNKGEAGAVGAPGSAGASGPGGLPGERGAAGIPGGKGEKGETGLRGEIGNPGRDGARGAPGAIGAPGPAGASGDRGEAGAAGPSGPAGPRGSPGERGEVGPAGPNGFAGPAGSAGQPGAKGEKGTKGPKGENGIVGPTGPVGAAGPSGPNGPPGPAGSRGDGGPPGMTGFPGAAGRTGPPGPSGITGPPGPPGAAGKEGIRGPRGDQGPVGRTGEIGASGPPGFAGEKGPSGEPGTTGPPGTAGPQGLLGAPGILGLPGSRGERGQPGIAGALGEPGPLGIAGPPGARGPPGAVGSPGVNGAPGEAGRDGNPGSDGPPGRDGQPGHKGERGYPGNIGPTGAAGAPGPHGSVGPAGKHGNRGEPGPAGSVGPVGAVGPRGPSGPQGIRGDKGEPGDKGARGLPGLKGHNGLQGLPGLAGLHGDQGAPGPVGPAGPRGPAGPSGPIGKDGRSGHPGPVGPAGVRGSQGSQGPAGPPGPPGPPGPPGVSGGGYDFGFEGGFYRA

B1: DDR1b ectodomain (ECD) harboring an IgG2 Fc fragment at the C-terminal end, N211Q (Fc fusion)
chain: DADMKGHFDPAKCRYALGMQDRTIPDSDISASSSWSDSTAARHSRLESSDGDGAWCPAGSVFPKEEEYLQVDLQRLHLVALVGTQGRHAGGLGKEFSRSYRLRYSRDGRRWMGWKDRWGQEVISGNEDPEGVVLKDLGPPMVARLVRFYPRADRVMSVCLRVELYGCLWRDGLLSYTAPVGQTMYLSEAVYLQDSTYDGHTVGGLQYGGLGQLADGVVGLDDFRKSQELRVWPGYDYVGWSNHSFSSGYVEMEFEFDRLRAFQAMQVHCNNMHTLGARLPGGVECRFRRGPAMAWEGEPMRHNLGGNLGDPRARAVSVPLGGRVARFLQCRFLFAGPWLLFSEISFISDVVNNSSPALGGTFPPAPWWPPGPPPTNFSSLELEPRGQQPVAKAEGSPT
Molecule B1 had a Kd with Rat tail collagen type I of 4.75 nM.

B2: DDR1b ectodomain (ECD) harboring an IgG2 Fc fragment at the C-terminal end, wild type (Fc fusion)
chain: DADMKGHFDPAKCRYALGMQDRTIPDSDISASSSWSDSTAARHSRLESSDGDGAWCPAGSVFPKEEEYLQVDLQRLHLVALVGTQGRHAGGLGKEFSRSYRLRYSRDGRRWMGWKDRWGQEVISGNEDPEGVVLKDLGPPMVARLVRFYPRADRVMSVCLRVELYGCLWRDGLLSYTAPVGQTMYLSEAVYLNDSTYDGHTVGGLQYGGLGQLADGVVGLDDFRKSQELRVWPGYDYVGWSNHSFSSGYVEMEFEFDRLRAFQAMQVHCNNMHTLGARLPGGVECRFRRGPAMAWEGEPMRHNLGGNLGDPRARAVSVPLGGRVARFLQCRFLFAGPWLLFSEISFISDVVNNSSPALGGTFPPAPWWPPGPPPTNFSSLELEPRGQQPVAKAEGSPT
In the case of B2, in the series with Rat tail collagen type I, the Kd worked out at 3.33 nM.

B3: Discoidin domain receptor 1 (DDR1b): N211Q (protein)
parent chain: MGPEALSSLLLLLLVASGDADMKGHFDPAKCRYALGMQDRTIPDSDISASSSWSDSTAARHSRLESSDGDGAWCPAGSVFPKEEEYLQVDLQRLHLVALVGTQGRHAGGLGKEFSRSYRLRYSRDGRRWMGWKDRWGQEVISGNEDPEGVVLKDLGPPMVARLVRFYPRADRVMSVCLRVELYGCLWRDGLLSYTAPVGQTMYLSEAVYLNDSTYDGHTVGGLQYGGLGQLADGVVGLDDFRKSQELRVWPGYDYVGWSNHSFSSGYVEMEFEFDRLRAFQAMQVHCNNMHTLGARLPGGVECRFRRGPAMAWEGEPMRHNLGGNLGDPRARAVSVPLGGRVARFLQCRFLFAGPWLLFSEISFISDVVNNSSPALGGTFPPAPWWPPGPPPTNFSSLELEPRGQQPVAKAEGSPTAILIGCLVAIILLLLLIIALMLWRLHWRRLLSKAERRVLEEELTVHLSVPGDTILINNRPGPREPPPYQEPRPRGNPPHSAPCVPNGSALLLSNPAYRLLLATYARPPRGPGPPTPAWAKPTNTQAYSGDYMEPEKPGAPLLPPPPQNSVPHYAEADIVTLQGVTGGNTYAVPALPPGAVGDGPPRVDFPRSRLRFKEKLGEGQFGEVHLCEVDSPQDLVSLDFPLNVRKGHPLLVAVKILRPDATKNARNDFLKEVKIMSRLKDPNIIRLLGVCVQDDPLCMITDYMENGDLNQFLSAHQLEDKAAEGAPGDGQAAQGPTISYPMLLHVAAQIASGMRYLATLNFVHRDLATRNCLVGENFTIKIADFGMSRNLYAGDYYRVQGRAVLPIRWMAWECILMGKFTTASDVWAFGVTLWEVLMLCRAQPFGQLTDEQVIENAGEFFRDQGRQVYLSRPPACPQGLYELMLRCWSRESEQRPPFSQLHRFLAEDALNTV
As to B3, the oligomerisation entry in series [1] is given as “increases”. Also, the expression_or_secretion result in series [2] is given as “no change”. The localisation_or_trafficking result is on record as “decreases” in series [3] and “no change” in series [4].
